In patent publication US7056715B1, “GST sequences from soybean and their use in the production of herbicide resistant plants” (Syngenta Limited, priority 1999, dated 2006):

T1: Glycine max (soybean) homoglutathione synthetase, recombinant, C-terminal HIS-tag (pET-MS4-His), SEQ ID No. 1 (Glycine max, UniProt Q9M426)
T1 sequence (Q9M426 1-499): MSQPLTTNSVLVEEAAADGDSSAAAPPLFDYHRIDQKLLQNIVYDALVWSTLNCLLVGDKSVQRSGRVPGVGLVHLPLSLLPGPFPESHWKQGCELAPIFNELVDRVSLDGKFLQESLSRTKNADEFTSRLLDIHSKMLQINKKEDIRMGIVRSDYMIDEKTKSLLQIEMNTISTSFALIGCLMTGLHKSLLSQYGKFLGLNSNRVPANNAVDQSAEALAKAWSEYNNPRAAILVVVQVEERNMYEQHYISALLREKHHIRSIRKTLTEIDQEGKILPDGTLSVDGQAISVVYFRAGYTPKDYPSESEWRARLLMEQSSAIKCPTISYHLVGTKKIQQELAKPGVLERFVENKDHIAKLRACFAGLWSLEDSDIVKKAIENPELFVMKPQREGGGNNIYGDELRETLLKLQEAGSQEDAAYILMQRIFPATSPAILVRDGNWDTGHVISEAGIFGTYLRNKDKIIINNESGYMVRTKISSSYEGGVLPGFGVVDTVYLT

B1: GST 3.3: Recombinant soybean Glutathione-S-transferase 3.3, SEQ ID No. 10; may also be referred to as GST 3.6 (protein)
chain: MAERDLRLLGAWFSPFALRVQIALNLKGLDYEVVEETLNPKSELLLKSNPVHKKIPVFFHGDKVICESAIIVEYIDEVWSNNALSILPQNAYDRANARFWVSYIDDKWLTSLKSVLATEDDEAKKLHFEQAEEVLEKVEEVFNKCSEGKAYFGGDTIGFVDIGFGSFLSFIRVSENMNERKLLDETKYPGLTLWAETFAADPAVKGLLPETEKLVEFAKILQLKWAAAAAAK
modifications: Glycine max
B2: GST 2.6: Recombinant soybean Glutathione-S-transferase 2.6, SEQ ID No. 7 (protein)
chain: MSSSQEEVTLLGVVGSPFLHRVQIALKLKGVEYKYLEDDLNNKSDLLLKYNPVYKMIPVLVHNEKPISESLVIVEYIDDTWKNNPILPSDPYQRALARFWAKFIDDKCVVPAWKSAFMTDEKEKEKAKEELFEALSFLENELKGKFFGGEEFGFVDIAAVLIPIIQEIAGLQLFTSEKFPKLSKWSQDFHNHPVVNEVMPPKDQLFAYFKARAQSFVAKRKN
modifications: Glycine max
B3: GST 3.1: Recombinant soybean Glutathione-S-transferase 3.1, SEQ ID No. 8 (protein)
chain: MAEQDKVILHGMWASPYAKRVELALNFKGIPYEYVEEDLRNKSDLLLKYNPVHKKVPVLVHNGKAIAESMVILEYIDETWKDGPKLLPSDSYKRAQARFWCHFIQDQLMESTFLVVKTDGEAQQKAIDHVYEKLKVLEDGMKTYLGEGNAIISGVENNFGILDIVFCALYGAYKAHEEVIGLKFIVPEKFPVLFSWLMAIAEVEAVKIATPPHEKTVGILQLFRLSALKSSSATE
modifications: Glycine max
B4: Glycine max (soybean) homoglutathione synthetase, recombinant, C-terminal HIS-tag (pET-MS4-His), SEQ ID No. 1 (Glycine max) (protein)
chain: T1 sequence (Q9M426 1-499)
B5: GST 3.2: Recombinant soybean Glutathione-S-transferase 3.2, SEQ ID No. 9 (protein)
chain: MAEVKLHGFWYSPYTLRVVWTLKLKDIPYQNIEEDRYNKSLQLLEYNPVYKKTPVLVHNGKPLCESMLIVEYIDEIWAHNSLLPADPYERALARFWVKYADDDMFSAVIAFFLSNNDEEREKSIEKIWEHLRVVENQCFGDQKKFFGGDIINIMDIAFGSIFKILVVAEDILDAKVLEDEKFPHLHSWYNNFKDVAVIKENLPDHEKMVAFAKFIREKRLACT
modifications: Glycine max

Legend:
[1] = target: T1, Glycine max (soybean) homoglutathione synthetase, recombinant, C-terminal HIS-tag (pET-MS4-His), SEQ ID No. 1; assay: Activity of recombinant homoglutathione synthetase (addition of glycine or β-alanine onto γ-glutamylcysteine; monobromobimane derivatisation); type: biochemical; settings: 250 mM Tris-HCl pH 8.0, 50 mM KCl, 20 mM MgCl2, 5 mM DTT, 10 mM ATP, 1 mM γ-glutamylcysteine; 30° C.
Experimental: (§1) A 5′ Nco 1 and 3′ Xho 1 restriction enzyme site were introduced into the homoglutathione synthetase cDNA via PCR using primers MS4-Nco (SEQ ID No. 19) and MS-4-HIS (SEQ ID No. 20). Additionally, the use of the MS4-HIS primer provided a C-terminal HIS-tag to assist purification of the enzyme. 5.2 The resulting PCR fragment was digested with Nco1 and Xho 1 and ligated into similarly digested pET-24d. This vector was termed pET-MS4-His. The purification of homoglutathione synthetase was performed using the following method. E. coli BL21 (DE3) harbouring the pET-MS4-His plasmid (section 1.3) were grown at 30° C. until OD600=0.5, after which isopropyl-β-D-thiogalactoside (IPTG) was added to a final concentration of 0.1 mM. Following a 3 hour incubation the bacteria were collected by centrifugation, re-suspended in buffer A (20 mM Tris, 0.5 M NaCl, 5 mM imidazole pH 8.0) and lysed. […] 5.3 The eluted protein was concentrated using a Centriplus 30 (Amicon™) spin column and re-suspended in buffer A prior to application onto a 1 ml HiTrap chelating column (Phamacia™), pre-charged with NiSO4 and equilibrated as described previously. Affinity bound protein was then recovered using an increasing concentration of 20–200 mM imidiazole and the presence of His-tagged recombinant homoglutathione synthetase was detected using His-tagged antibodies according to known procedures. […]

[2] = GST activity of purified recombinant protein toward fluorodifen; type: biochemical; settings: recombinant enzyme, ±SE, n=2; for GST activity toward fluorodifen, GSH: thiol GSH; for GST activity toward fluorodifen, hGSH: thiol hGSH
Experimental: (§2) 4.2 Nde I or Nco I sites were introduced as appropriate into the 5′ end cDNAs encoding glutathione S-transferase and Bam H1 at the 3′ end using PCR. The cDNA was then cloned into pET-24a or pET-24d as appropriate. The resulting plasmids were introduced into E. coli BL21 (DE3) using standard bacterial transformation procedures known to the skilled artisan. Expression and purification of the recombinant GST was performed using anion-exchange chromatography and S-Hexyl-glutathione affinity chromatography according to the methods known in the art (for example, Skipsey et al., 1997). GST activity of the purified recombinant protein toward CDNB, acetochlor, acifluorfen, chlorimuron-ethyl, fluorodifen. fomesafen and metolachlor in the presence of both glutathione and homoglutathione was performed via assays which are described in Andrews et al., 1997 and Skipsey et al., 1997.

[3] = GST activity of purified recombinant protein toward fomesafen; type: biochemical; settings: recombinant enzyme, ±SE, n=2; for GST activity toward fomesafen, GSH: thiol GSH; for GST activity toward fomesafen, hGSH: thiol hGSH
Experimental: as §2

[4] = GST activity of purified recombinant protein toward CDNB; type: biochemical; settings: recombinant enzyme, ±SE, n=2; for GST activity toward CDNB, GSH: thiol GSH; for GST activity toward CDNB, hGSH: thiol hGSH
Experimental: as §2

[5] = GST activity of purified recombinant protein toward acifluorfen; type: biochemical; settings: recombinant enzyme, ±SE, n=2; for GST activity toward acifluorfen, GSH: thiol GSH; for GST activity toward acifluorfen, hGSH: thiol hGSH
Experimental: as §2

[6] = GST activity of purified recombinant protein toward acetochlor; type: biochemical; settings: recombinant enzyme, ±SE, n=2; for GST activity toward acetochlor, GSH: thiol GSH; for GST activity toward acetochlor, hGSH: thiol hGSH
Experimental: as §2

[7] = GST activity of purified recombinant protein toward metolachlor; type: biochemical; settings: recombinant enzyme, ±SE, n=2; for GST activity toward metolachlor, GSH: thiol GSH; for GST activity toward metolachlor, hGSH: thiol hGSH
Experimental: as §2

[8] = substrate: NCC(=O)O; assay: purified protein, by the assay type; type: biochemical, Glycine max (soybean); settings: other: 250 mM Tris-HCl pH 8.0, 50 mM KCl, 20 mM MgCl2, 5 mM DTT, 10 mM ATP, 1 mM γ-glutamylcysteine, 30° C.
Experimental: as §1

[9] = substrate: NCCC(=O)O; assay: purified protein, by the assay type; settings: other: 250 mM Tris-HCl pH 8.0, 50 mM KCl, 20 mM MgCl2, 5 mM DTT, 10 mM ATP, 1 mM γ-glutamylcysteine, 30° C.

Molecule | Vmax [1] [pkats/mg hGS] | GST activity toward fluorodifen, GSH [2] [pkat mg-1] | GST activity toward fluorodifen, hGSH [2] [pkat mg-1] | GST activity toward fomesafen, GSH [3] [pkat mg-1] | GST activity toward fomesafen, hGSH [3] [pkat mg-1] | GST activity toward CDNB, GSH [4] [nkat mg-1] | GST activity toward CDNB, hGSH [4] [nkat mg-1] | GST activity toward acifluorfen, GSH [5] [pkat mg-1] | GST activity toward acifluorfen, hGSH [5] [pkat mg-1] | GST activity toward acetochlor, GSH [6] [pkat mg-1] | GST activity toward metolachlor, GSH [7] [pkat mg-1] | GST activity toward metolachlor, hGSH [7] [pkat mg-1] | GST activity toward acetochlor, hGSH [6] [pkat mg-1] | Km [8] [mM] | Km [9] [mM]
NCCC(=O)O [β-alanine] | 42250 ± 3173 |  |  |  |  |  |  |  |  |  |  |  |  |  | 
NCC(=O)O [Glycine] | 3300 ± 341 |  |  |  |  |  |  |  |  |  |  |  |  |  | 
B1 |  | 360.5 | 602.5 | 110 | 6250 | 82.9 | 189.0 | 123.0 | 1350 | 420.0 | 312.0 | 264.5 |  |  | 
B2 |  |  | 19.3 | 27.1 | 350.5 | 18.7 | 19.0 |  | 31.1 | 352.5 | 142.0 | 95.5 | 391.0 |  | 
B3 |  | 1150 | 1350 | 213.6 | 484.6 | 59.2 | 59.2 | 152.5 | 238.5 | 190.5 | 177.5 | 67.5 | 11.0 |  | 
B4 |  |  |  |  |  |  |  |  |  |  |  |  |  | 54.9 ± 18.7 | 0.84 ± 0.19
B5 |  | 78.2 | 68.0 | 21.3 | 201.6 | 24.9 | 10.3 | 7.5 | 23.2 | 418.0 | 253.0 | 191.5 | 143.0 |  | 
